The target in data set [1] is T1, HSA (Homo sapiens, UniProt P02768).
T1 construct: purchased Sigma-Aldrich Co. LLC
The data set can be described thus: Kd of TMR-labeled peptide for HSA by fluorescence intensity difference and Hill's equation. The class given is binding. The conditions noted are these: for suitability as linker peptide of the peptide for temperature determination (FIG. 8): classified by Kd for HSA, 500 μM or more = suitable. The protocol: Each of the resulting mixtures was subjected to measurement with a spectrophotofluorometer [product name: F-7000, manufactured by Hitachi High-Technologies Corporation] and the fluorescence intensity with an excitation wavelength of 540 nm and a fluorescence wavelength of 580 nm (hereinafter, referred to as “fluorescence intensity A”) was measured.
Each of the resulting mixtures was subjected to measurement with a spectrophotofluorometer [product name: F-7000, manufactured by Hitachi High-Technologies Corporation] and the fluorescence intensity with an excitation wavelength of 540 nm and a fluorescence wavelength of 580 nm (hereinafter, referred to as “fluorescence intensity B”) was measured.
Equation (I): Difference between fluorescence intensities=fluorescence intensity A−fluorescence intensity B (I)
A difference between the fluorescence intensities was determined in accordance with the above equation.

The nature of data set [2]: Isoelectric point (pI) of the peptides of Table 3. The class given is physicochemical.
The target of data set [3] is T1, HSA. The data set can be described thus: Hydrothermal treatment in the presence of HSA or serum, partition of peptide between supernatant and insoluble fraction (SDS-PAGE, fluorescence image). To be noted: for band derived from the peptide in supernatant of hydrothermally-treated sample: SDS-PAGE fluorescence image.
Setting [4] is: microwave hydrothermal treatment 160° C., in the presence of HSA.
Setting [5] is: heat transfer 200° C. for 40 minutes, in the presence of HSA (300 or 600 μM), phosphate buffered saline.

Residues, ends and D or L forms follow the SMILES beside them. No end group written: not given here. Some results are limits rather than exact numbers.

The Kd is the equilibrium constant for the complex coming apart. Low values mean a tighter complex, high ones a looser complex.

With `CSCC[C@H](NC(=O)[C@H](CO)NC(=O)[C@H](Cc1ccc(O)cc1)NC(=O)[C@@H](N)CO)C(=O)N[C@@H](CCC(=O)O)C(=O)N[C@@H](Cc1c[nH]cn1)C(=O)N[C@@H](Cc1ccccc1)C(=O)N[C@@H](CCCNC(=N)N)C(=O)N[C@@H](Cc1c[nH]c2ccccc12)C(=O)NCC(=O)N[C@@H](CCCCN)C(=O)N1CCC[C@H]1C(=O)N[C@H](C(=O)NCC(=O)N[C@@H](CCCCN)C(=O)N[C@@H](CCCCN)C(=O)N[C@@H](CCCNC(=N)N)C(=O)N[C@@H](CCCNC(=N)N)C(=O)N1CCC[C@H]1C(=O)N[C@H](C(=O)N[C@@H](CCCCN)C(=O)N[C@H](C(=O)N[C@@H](Cc1ccc(O)cc1)C(=O)N1CCC[C@H]1C(=O)N[C@@H](CC(N)=O)C(=O)N[C@@H](C)C(=O)NCC(=O)N[C@@H](CCC(=O)O)C(=O)N[C@@H](CC(N)=O)C(=O)N[C@@H](CCC(=O)O)C(=O)N[C@@H](CO)C(=O)N[C@@H](C)C(=O)N[C@@H](CCC(=O)O)C(=O)N[C@@H](C)C(=O)N[C@@H](Cc1ccccc1)C(=O)N1CCC[C@H]1C(=O)N[C@@H](CC(C)C)C(=O)N[C@@H](CCC(=O)O)C(=O)N[C@@H](Cc1ccccc1)C(=O)O)C(C)C)C(C)C)C(C)C` [ACTH (1-39), Adrenocorticotropic hormone (ACTH) (1-39)] (H-SYSMEHFRWGKPVGKKRRPVKVYPNAGENESAEAFPLEF-OH; N-terminus and C-terminus assumed), the “suitability as linker peptide of the peptide for temperature determination (FIG. 8)” value (“suitability as linker peptide” for short) on HSA [1] is reported as “suitable”. In data set [2], the pI worked out at 9.3. Consider `CC[C@H](C)[C@H](NC(=O)[C@H](CCC(=O)O)NC(=O)[C@H](CC(=O)O)NC(=O)[C@@H](NC(=O)[C@H](CS)NC(=O)[C@H](CC(C)C)NC(=O)[C@@H]1CCCN1C(=O)[C@H](CCCNC(=N)N)NC(=O)[C@H](Cc1c[nH]c2ccccc12)NC(=O)CNC(=O)[C@H](CS)NC(=O)[C@H](CC(C)C)NC(=O)[C@H](Cc1c[nH]c2ccccc12)NC(=O)[C@H](CCC(=O)O)NC(=O)[C@H](CC(=O)O)NC(=O)[C@@H](N)CC(=O)O)[C@@H](C)CC)C(=O)N[C@@H](CC(C)C)C(=O)N[C@@H](CCCNC(=N)N)C(=O)O` [SA21] (H-DDEWLCGWRPLCIDEILR-OH; N-terminus and C-terminus assumed), for which, at HSA [1] (TMR-labeled peptide, phosphate buffered saline, excitation 540 nm / fluorescence 580 nm), the Kd was < 500 µM. For the compound “(Arg) 10: SEQ ID NO: 21, 10 amino acid residues”, the “suitability as linker peptide” value with HSA [1] is “suitable”. Also, the pI in data set [2] came out at 13. The like results for “(Glu) 10: SEQ ID NO: 18, 10 amino acid residues” were, in that order, “suitable” and 3.5.

Turning to “(Gly) 10: SEQ ID NO: 20, 10 amino acid residues”, the “suitability as linker peptide” value with HSA [1] is “suitable”. In data set [2], this compound registered a pI of 5.5. In data set [2], “(His)3: SEQ ID NO: 11, 3 amino acid residues (HHH; Synthetic sequence of (His)3)” showed a pI of 7. Still for that read-out and setting: under “(Lys)10: SEQ ID NO: 6, 10 amino acid residues (KKKKKKKKKK; Synthetic sequence of (Lys)10)” stands 11. Turning to “ACTH (1-41): SEQ ID NO: 17, 41 amino acid residues (GPSYSMEHFRWGKPVGKKRRPVKVYPNGAEDESAEAFPLEF; Synthetic sequence of ACTH (1-41))”, the “suitability as linker peptide” value with HSA [1] is “suitable”. In addition, the pI in data set [2] is on record as 8.3. In data set [2], “ACTH (2-16): SEQ ID NO: 10, 15 amino acid residues (YSMEHFRWGKPVGKK; Synthetic sequence of ACTH (2-16))” returned a pI of 10. Still for that read-out and setting: to “ACTH (7-11): SEQ ID NO: 5, 5 amino acid residues (FRWGK; Synthetic sequence of ACTH (7-11))” belongs 11; to “Blood coagulation factor XIII (Factor XIII): SEQ ID NO: 15, 25 amino acid residues (AVPPNNSNAAEDDLPTVELQGVVPR; Synthetic sequence of Factor XIII)”, 3.9.

Take Brain natriuretic peptide [BNP]: in the data set with HSA [1], the “suitability as linker peptide” value is “suitable”. This compound also had a pI in data set [2] of 11. The like results for “C4a: SEQ ID NO: 23, 15 amino acid residues (NGFKSHALQLNNRQI; Synthetic sequence of C4a) [Peptide C4a]” were, in that order, “suitable” and 11. With “C-peptide: SEQ ID NO: 31, 31 amino acid residues (EAEDLQVGQVELGGGPGAGSLQPLALEGSLQ; Synthetic sequence of C-peptide)”, the “suitability as linker peptide” value with HSA [1] is recorded as “suitable”. The pI in data set [2] was determined as 3.5. Turning to Colistin, the “suitability as linker peptide” value at HSA [1] is “suitable”.

As to “Cp6: SEQ ID NO: 22, 8 amino acid residues (DIGEEFNQ; Synthetic sequence of Cp6)”, the “suitability as linker peptide” value with HSA [1] was “suitable”. In data set [2], the pI is reported as 3.6.

Regarding “Dynorphin A (YGGFLRRIRPKLK; Synthetic sequence of Dynorphin A)”, in the data set with HSA [1], the “suitability as linker peptide” value was “suitable”. This compound also had a pI in data set [2] of 11.7. For “Fibrinogen α: SEQ ID NO: 12, 25 amino acid residues (DEAGSEADHEGTHSTKRGHAKSRPV; Synthetic sequence of Fibrinogen alpha)”, the pI in data set [2] came to 6.3.

The compound “Glucagon (1-29): SEQ ID NO: 4, 29 amino acid residues” showed a pI in data set [2] of 6.8. Turning to “HSA 237-249 fragment: SEQ ID NO: 26, 13 amino acid residues (AWAVARLSQRFPK; Synthetic sequence of HSA237-249)”, the “suitability as linker peptide” value with HSA [1] was “suitable”. The compound further came in with a pI in data set [2] of 12.

Consider “HSA 599-609 fragment: SEQ ID NO: 30, 11 amino acid residues (LVAASQAALGL; Synthetic sequence of HSA599-609)”, for which the “suitability as linker peptide” value with HSA [1] was “suitable”. The pI in data set [2] amounted to 5.5. In the case of “ITIH4: SEQ ID NO: 28, 21 amino acid residues (NVHSAGAAGSRMNFRPGVLSS; Synthetic sequence of ITIH4)”, the “suitability as linker peptide” value in the data set with HSA [1] is reported as “suitable”. The compound further registered a pI in data set [2] of 12.

Consider “Kininogen: SEQ ID NO: 7, 19 amino acid residues (HNLGHGHKHERDQGHGHQR; Synthetic sequence of Kininorgen)”, for which the pI in data set [2] came out at 8.8. On to “TMR-labeled ACTH (1-24): ACTH (1-24) labeled with tetramethyl rhodamine (TMR)”, for which the “band derived from the peptide in supernatant of hydrothermally-treated sample” value (shortened to “band derived from the peptide”) with HSA [3] (setting [4]) is on record as “not observed”. The same measure, in the same setting: under “TMR-labeled ACTH (1-39): ACTH (1-39) labeled with tetramethyl rhodamine (TMR) (SYSMEHFRWGKPVGKKRRPVKVYPNAGENESAEAFPLEF; also: tetramethyl rhodamine (TMR) label, position not given here)” stands “observed”. For “TMR-labeled HSA 599-609 fragment: HSA 599-609 fragment labeled with tetramethyl rhodamine (TMR) (LVAASQAALGL; also: tetramethyl rhodamine (TMR) label, position not given here)”, in the data set with HSA [3] (setting [5]), the “band derived from the peptide” value was “observed”. For the compound “TMR-labeled SA21: SA21 labeled with tetramethyl rhodamine; used as peptide for phase partition determination (DDEWLCGWRPLCIDEILR; cysteine pairing not given here; also: tetramethyl rhodamine (TMR) label, position not given here)”, the “partition of peptide after hydrothermal treatment” value with HSA [3] (160° C., serum-containing sample M, observed under visible light) was “transferred to the insoluble fraction”. Further, the “band derived from the peptide” value with HSA [3] (setting [5]) is reported as “light band”. Compound “lqp: SEQ ID NO: 13, 12 amino acid residues (GKYFNAAEYHAQ; Synthetic sequence of lqp)” came in with a pI in data set [2] of 6.8. “β-amyloid (1-40): SEQ ID NO: 1, 40 amino acid residues” yielded a pI in data set [2] of 5.3. As for “β-amyloid (1-42): SEQ ID NO: 2, 42 amino acid residues”, the pI in data set [2] is given as 5.3.

These data come from patent publication US9995740B2, “Method of determining temperature and method of detecting a target peptide” (SYSMEX CORPORATION, priority 2015, dated 2018).
